We go through 19 variants from the RNAGym collection of RNA variant scans (doi:10.1073/pnas.2313332121).

B1: TPR 5TU (parent)
chain: GGAUCUUCUCGAUCUAACAAAAAAGACAAAUCUGCCACAAAGCUUGAGAGCAUCUUCGGAUGCAGAGGCGGCAGCCUUCGGUGGCGCGAUAGCGCCAACGUUCUCAACUAUGACACGCAAAACGCGUGCUCCGUUGAAUGGAGUUUAUCAUG

Fewer inactive variants are shown than the library holds. A value given as a limit tells only on which side of the number the result lay.

This series covers variants of B1. The series is described as follows: polymerase ribozyme fitness, log enrichment relative to wild type (log ratio); higher = more active; in vitro selection for triplet polymerase activity. In outline: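 Fitness is a logarithmic measure of how a genotype enriched relative to the wild type, with replicate averages weighted by inverse variance. The logarithm uses base 2, and enrichment came from Illumina sequencing of input and output libraries. Those libraries were PCR-built, transcribed mutants of each subunit of a heterodimeric triplet polymerase ribozyme, passed through one triplicate in vitro selection round that included frozen incubation at −7 °C, gel excision of extended constructs and streptavidin-bead capture. Genotypes were kept only if they had ≥10 input reads and ≥1 read per output.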
On to GGAUCUUCUCUAUCUAACCAAAAAGACAAAUCUGCCACAAAGCUUGAGAGCAUCAUCGGAUGCAGAGGCGACAGCCUUCGGUGGCGCGAUCGCGCCAACAUUCUCAACGAUGACACGCAAAUCGCGUGCUCCGUUGAAUGGAGUUUAUCAUG [G11U A19C U55A G71A A91C G100A U109G A122U], for which the “polymerase ribozyme fitness (log ratio)” value was at most -4.2.

On to GGAUCUUCUCCAUCUAACAAAAAAGACAAAUCUGCCACAAAGCUUGAGAGCAUCUUCGGAUGCAGAGGCGGCAGCCUUCGGUGGCGCGAUAGCGCCAACGUUCUUAACUAUGACACGGAAAACGCGUGCUCCGUUGAAUGGAGUUUAUCAUG [G11C C105U C118G], for which the “polymerase ribozyme fitness (log ratio)” value was -1.92.

On to GGAUCUUCUCCAUCUAACAAAAAAGACAAAUCUGCCACAAAGCUUGAGAGUAUCUUCGGAUGCAGAGGCGGCAGCCUUCGGUGGUGCGAUAGCGCCAACGUUCUCAACUAUGACACGCAAAACGCGUGCUCCGUUGAAUCGAGUUUAUCAUG [G11C C51U C85U G140C], for which the “polymerase ribozyme fitness (log ratio)” value was at most -4.2.

In the case of GGAUCUUCUCCAUCUAACAAAAAAGACAAAUCUGCCACAAAGCUUGAGAGCAUCUUCGGAAGCAGAAGCGGCAGCCUUCGGUGGCGCGAUAGCCCCAACGUUCUCAACUAUGACACGCAAAACGCGUGCUCCGUUGAAUGGAGUGUUUCAUG [G11C U61A G67A G94C U145G A147U], the “polymerase ribozyme fitness (log ratio)” value is at most -4.2.

Take GGAUCUUCUCCAUCUAACAAAAAAGACAAAUCUGCCACAAAGCUUGAGAGCAUCUACGGAUGCAGAGGCGGCAGCCUUCGGUGGCACGAUAGCGCCAACGUUCUCAACUAUGACACGCAAAACGCGUGCUCCGUUGAAUGGAGUUUAUCAUG [G11C U56A G86A]: the “polymerase ribozyme fitness (log ratio)” value was at most -4.2.

GGAUCUUCUCCAUCUAACAAAAAAGACAAACCUGCCACAAAGCUUGAGAGCAUCUUCGCAUGCAGAGGCGGCAGCAUUCGGUGUCGCGAUAGCGCCAACGUUCACAUCUAUGACACGCAAAACGCGUGCUCCGUUGAAUGGAGUUUAUCAUG [G11C U31C G59C C76A G84U U104A A107U]: the “polymerase ribozyme fitness (log ratio)” value is at most -4.2.

With GGAUCUUCUCCAUCUAACAAAAAAGACAAAUCUGCCACAAAGCUUGAGAGCAUCUUCGGAUGCAGAGGCGGCAACUUUCGGUGGCGCGAUAGGGCCAACGUUCUCAACUAUGGCACGCAAAACGCGUGCUCCGUUGAAUGGAGUAUAUCAUG [G11C G74A C76U C93G A113G U145A], the “polymerase ribozyme fitness (log ratio)” value was at most -4.2.

Regarding GGAUCUUCUCCAUCUAACAAAAAAGACAAAUCUGCCACAAAGCUUGAGAGCAUCUUCAGAUGCAGAGGCGGCAGCCUUCGGUGGCGCGAUAGCGCCAACGUUCUCAACUAUGACACGCAAAACGCGUGCUCCGUUGAAUGGAGUUUAUCAUG [G11C G58A], the “polymerase ribozyme fitness (log ratio)” value is -1.65.

Turning to GGAUCUUCUCCAUCUAACAAAAAAGACAAAUCUGCCACAAAGCUUGAGAGCAUCUUCGGAUGCAGAGGCGGCAGUCUUCGGUGGCGCGAUAGCGCCAACGUUCUCAACUAUGACACGCAAAACGCGUGCUCCGUUGAAUGGAGUUUAUCAUG [G11C C75U], the “polymerase ribozyme fitness (log ratio)” value was -1.85.

Turning to GGAUCUUCUCCAUCUAACAAAAAAGACAAAUCUGCCACAAAGCUUGAGAGCAUCUUCGGAUACAGAGGCGGCAGCCUUCGGUGGCGGGAUAGCGCCAACGUUCUCAACUAUGACACGCAAAACGCGUGCUCCGUUGAAUGGAGUUUAUCAUG [G11C G62A C87G], the “polymerase ribozyme fitness (log ratio)” value is at most -4.2.

Turning to GGAUCUUCUCUAUCUAACAAAAUAGACAAAUCUGCCACAAAGCUUGAGAGCAUCUUCGGAUGCAGAGGCGGCAGCCUUCGGUGGCGCGAUAGCGCCAACGUUCUCAACUAUGACACGCAAAACGCGUGCUCCGUUGAAUGGAGUUUAUCAUG [G11U A23U], the “polymerase ribozyme fitness (log ratio)” value was at most -4.2.

Turning to GGAUCUUCUCCAUCUAACAAAAAAGACAAAUCUGCCACAAAGCUUGAGAGCAUCUUCGGAUGCAGAGGCGGCAGCCUUCGGUAGCGCGAUAGCGCCAACGUUCUCAACUAUGACACGCAAAACGCGUGCUCCGUUGAAUGUAGUUUAUCAUG [G11C G83A G141U], the “polymerase ribozyme fitness (log ratio)” value was -0.379.

As to GGAUCUUCUCUAUCUACCAAAAAAGACAAAUCUGCCUCAAAGCUUGAGAGCAUCUUCGGAUGCAGAGGCGGCAGCCUUCGGUGGCGCGAUAGCGCCAACGUUCUCAACUAUGACACGCAAUUCGCGUGCUCCGUUGAAUGGAGUUUAUCAUG [G11U A17C A37U A121U A122U], the “polymerase ribozyme fitness (log ratio)” value is -3.25.

Consider GGAUCUUCUCCAUCUAACAAAAAAGACAAAUCUGCCACAAAGCUUGAGAACAUCUUCGGAUGCAGAGGCGGCAGCCUUCGGUGGCGCGAUAUCGCCAACGUUCUCAACUAUGACACGCAAAACGCGUGCUCCGUUGAAUGGAAUUUAUCAUG [G11C G50A G92U G143A], for which the “polymerase ribozyme fitness (log ratio)” value was -4.01.

As to GGAUCUUCUCCAUCUAACAAAAAAGACAAAUCUGCCACAAAGCUUGAGAGCAUCUUCGGAUGCAGAGGCGGCAGCCUUCGGUGGCGUGAUAGCGCCAACGUUCUCAACUAUGACACGCAAAACGCGUGCUCCGUUGAAUGGAGUUUAUCAUG [G11C C87U], the “polymerase ribozyme fitness (log ratio)” value was -2.7.

In the case of GGAUCUUCUCCAUCUAACAAAAAAGACAAAUCUGCCACAAAGCUUGAGAGCAUCUUCGGAUGCAGAGGCGGCAGCCUUCGGUGGCGCGAUAGCGCCAACGUUCUCAACUAUGACACGCAAAACGCGUGCUCCGUUGAAUGGAGUUUAGCAUG [G11C U148G], the “polymerase ribozyme fitness (log ratio)” value is at most -4.2.

Turning to GGAUCUUCUCCAUCUAACAAAAAAGACAAAUCUGCCACAAAGCUUGAGAGCAUCUUCGGAUGCAGAGGCGGCAGCCUUCGGUGGCGCGAUAGCGCCAACGUUCUCAACUAUGAUACGCAAAACGCGUGCUCCGUUGAAAGGAGUUUAUCAUG [G11C C114U U139A], the “polymerase ribozyme fitness (log ratio)” value was at most -4.2.

Regarding GGAUCUUCUCCAUCUAACAAAAAAGACAAAUCUGCCACAAAACUUGAGAGCAUCUUCGGAUGCAGAGGCGGCAGCCUUCGGUGGCGCCAUAGCGCCAACGUCCUCAACUAUGACACGCAAAACGCUUGCUCCGUUGAAUGGAGUUUAUCAUG [G11C G42A G88C U102C G126U], the “polymerase ribozyme fitness (log ratio)” value is at most -4.2.

Regarding GGAUCUUCUCCAUCGAACACAAAAGACUAAUCUGCCACAAAGCUUGAGAGCAUCUUCGGAUGCAGAGGCGGCAGCCUUCGGUGGUGCGAUAGCGCCAACGUUCUCAACUAUGACACGCAAAACGCGUGCUCCGUUGAAUUGAGUGUAUCAUG [G11C U15G A20C A28U C85U G140U U145G], the “polymerase ribozyme fitness (log ratio)” value is at most -4.2.
